Assays:
moFcRn = biological target: T1, moFcRn (mouse, UniProt Q61559); assay: Bio-Layer Interferometry (determined as described in Example 7)
T1 construct: recombinant; also called mouse FcRn; gene FCGRT (so in the source)
T1 sequence (receptor, looked up): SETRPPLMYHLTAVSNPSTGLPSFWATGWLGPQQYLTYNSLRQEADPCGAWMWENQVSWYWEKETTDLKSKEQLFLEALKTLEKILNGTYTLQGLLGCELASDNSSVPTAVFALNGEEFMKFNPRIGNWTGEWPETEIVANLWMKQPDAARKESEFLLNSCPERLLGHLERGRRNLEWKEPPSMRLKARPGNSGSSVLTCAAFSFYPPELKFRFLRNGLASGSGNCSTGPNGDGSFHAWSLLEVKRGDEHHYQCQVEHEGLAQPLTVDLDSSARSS
T1 sequence (looked up): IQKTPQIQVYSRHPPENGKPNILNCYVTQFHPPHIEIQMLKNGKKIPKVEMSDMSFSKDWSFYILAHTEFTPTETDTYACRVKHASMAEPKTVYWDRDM

human HER3 polypeptide [1] = biological target: T2, human HER3 polypeptide (human, UniProt P21860 20-643); assay: ELISA; plate coated with target polypeptide, antibody serially diluted, absorbance 450 nm
T2 construct: Recombinant antigen of the ELISAs; also called human HER3 (Sino Biological Inc.); human antigen HER3
Description: (§1) ELISAs were carried out according to standard protocols. Plates were coated with 0.1 μg/ml of target polypeptide in phosphate-buffered saline (PBS) for 16 h at 4° C. After blocking for 1 h with 1% BSA in Tris buffer saline (TBS) at room temperature, the anti-HER3 antibody was serially diluted with the highest concentration being 10 μg/ml, and added to the plate. Post 1 h incubation at room temperature, plates were washed three times with TBS containing 0.05% Tween 20 (TBS-T) and were then incubated with a HRP-conjugated anti-His antibody (Life Technologies, Inc., USA) for 1 h at room temperature. After washing, plates were developed with colorimetric detection substrate 3,3′,5,5′-tetramethylbenzidine (Turbo-TMB; Pierce, USA) for 10 min. The reaction was stopped with 2M H₂SO₄, and OD was measured at 450 nm.

mouse HER3 = biological target: T3, mouse HER3 (mouse, UniProt Q61526 20-641); assay: as above
T3 construct: also called mouse homologue of HER3 (Sino Biological Inc.); M. musculus HER3
Description: as §1

rat HER3 = biological target: T4, rat HER3 (rat, UniProt Q62799 20-641, limits assumed); assay: as above
T4 construct: also called rat homologue of HER3 (Sino Biological Inc.); R. norvegicus HER3
Description: as §1

cynomolgus macaque HER3 = biological target: T5, cynomolgus macaque HER3 (cynomolgus macaque, UniProt G7PIG5 20-643); assay: as above
T5 construct: also called monkey homologue of HER3 (Sino Biological Inc.); HER3 cyno
Description: as §1

human HER3 polypeptide [2] = biological target: T2, human HER3 polypeptide; assay: ELISA, plate coated with human HER3, antibody titrated, absorbance 450 nm, x axis Log([Ab]) (ug/ml)
[3] = biological target: T6, human HER3 expressed on cells (HEK293 HER3 O/E cells) (human, UniProt P21860 20-1342); assay: flow cytometry, HEK293 cells overexpressing human HER3 (293_OE HER3), 20 ug/ml antibody, FITC anti-Fc secondary; same antibody on 293 cells: 2.78; unstained 293: 0.14
T6 construct: Also used here for HER3 on U2OS cells of the PathHunter kit and on cancer cell lines; also called HEK293 cells transfected with vector encoding human HER3; human HER3-expressing cells

T5 sequence (G7PIG5 entry or part of it): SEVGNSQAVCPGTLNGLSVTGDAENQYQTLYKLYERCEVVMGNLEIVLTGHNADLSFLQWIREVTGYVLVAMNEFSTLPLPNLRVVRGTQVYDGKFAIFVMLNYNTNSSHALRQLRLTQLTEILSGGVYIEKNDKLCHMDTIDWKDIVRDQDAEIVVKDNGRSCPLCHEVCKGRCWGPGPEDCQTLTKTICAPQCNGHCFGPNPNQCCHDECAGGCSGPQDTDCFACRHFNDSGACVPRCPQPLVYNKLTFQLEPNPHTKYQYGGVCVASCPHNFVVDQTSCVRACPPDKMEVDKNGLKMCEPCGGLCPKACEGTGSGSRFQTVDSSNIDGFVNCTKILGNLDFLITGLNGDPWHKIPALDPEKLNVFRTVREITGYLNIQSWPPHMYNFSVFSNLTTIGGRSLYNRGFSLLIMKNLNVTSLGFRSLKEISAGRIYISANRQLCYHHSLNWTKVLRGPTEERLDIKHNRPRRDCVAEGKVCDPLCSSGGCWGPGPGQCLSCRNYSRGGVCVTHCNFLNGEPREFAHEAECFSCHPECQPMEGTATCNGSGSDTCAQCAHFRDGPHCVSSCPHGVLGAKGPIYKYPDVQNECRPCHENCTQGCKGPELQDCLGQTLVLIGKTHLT
T4 sequence (Q62799 20-641 limits assumed): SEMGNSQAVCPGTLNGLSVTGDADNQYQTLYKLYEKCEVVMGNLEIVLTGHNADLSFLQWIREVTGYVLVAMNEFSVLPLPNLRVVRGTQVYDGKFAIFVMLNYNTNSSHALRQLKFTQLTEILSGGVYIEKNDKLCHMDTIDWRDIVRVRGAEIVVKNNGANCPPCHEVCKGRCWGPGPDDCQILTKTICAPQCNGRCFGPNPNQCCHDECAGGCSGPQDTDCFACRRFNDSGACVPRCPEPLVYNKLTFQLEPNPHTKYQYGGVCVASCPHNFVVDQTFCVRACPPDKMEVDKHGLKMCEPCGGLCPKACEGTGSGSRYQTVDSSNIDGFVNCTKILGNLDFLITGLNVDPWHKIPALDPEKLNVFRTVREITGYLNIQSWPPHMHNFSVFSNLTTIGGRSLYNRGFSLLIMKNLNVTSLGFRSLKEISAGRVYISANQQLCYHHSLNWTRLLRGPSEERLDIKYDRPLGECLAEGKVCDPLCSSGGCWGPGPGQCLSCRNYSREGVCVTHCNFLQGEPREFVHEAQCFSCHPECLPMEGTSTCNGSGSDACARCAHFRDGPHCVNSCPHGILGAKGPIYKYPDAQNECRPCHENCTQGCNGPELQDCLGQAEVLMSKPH
T3 sequence (Q61526 20-641 limits assumed): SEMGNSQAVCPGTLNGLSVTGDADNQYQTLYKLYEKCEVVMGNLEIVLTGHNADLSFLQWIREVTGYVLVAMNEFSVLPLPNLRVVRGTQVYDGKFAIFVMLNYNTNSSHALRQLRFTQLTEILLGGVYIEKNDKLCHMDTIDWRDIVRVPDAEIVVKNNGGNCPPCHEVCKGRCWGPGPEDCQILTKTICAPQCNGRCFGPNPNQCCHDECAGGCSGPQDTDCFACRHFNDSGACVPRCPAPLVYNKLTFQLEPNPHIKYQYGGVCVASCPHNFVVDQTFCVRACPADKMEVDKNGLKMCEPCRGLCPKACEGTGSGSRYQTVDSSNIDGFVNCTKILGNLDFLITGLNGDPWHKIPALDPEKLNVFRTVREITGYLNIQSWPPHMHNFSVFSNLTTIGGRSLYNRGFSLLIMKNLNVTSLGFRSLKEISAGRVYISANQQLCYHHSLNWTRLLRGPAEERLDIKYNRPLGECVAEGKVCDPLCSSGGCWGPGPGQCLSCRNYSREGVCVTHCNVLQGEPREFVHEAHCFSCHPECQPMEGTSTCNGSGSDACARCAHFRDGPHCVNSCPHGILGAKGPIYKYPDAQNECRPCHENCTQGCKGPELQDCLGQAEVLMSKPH

B1: 10D1F.FcA (anti-HER3 clone 10D1_c89 IgG1) (antibody)
heavy: not shown
light: DIQMTQSPSSVSASVGDRVTITCKASQIVGSNVAWYQQKPGKAPEPLIYSASYLYSGVPSRFSGSGSGTDFTLTISSLQPEDFATYYCQQYSSHPLTFGQGTKLEIKRTVAAPSVFIFPPSDEQLKSGTASVVCLLNNFYPREAKVQWKVDNALQSGNSQESVTEQDSKDSTYSLSSTLTLSKADYEKHKVYACEVTHQGLSSPVTKSFNRGEC
notes: also called 10D1F.A; HMBD-001
Kd (moFcRn): 14.6 nM
EC50 (human HER3 polypeptide [1]): 0.0144 nM
EC50 (mouse HER3): 0.0332 nM
EC50 (rat HER3): 0.0303 nM
EC50 (cynomolgus macaque HER3): 0.0258 nM
EC50 (read off the curve) (human HER3 polypeptide [2]): ~2 ng/mL
% Parent (HER3 positive) [3]: 44.6%
